Laboratory results as given in patent US20230072640A1 (VANDERBILT UNIVERSITY, published 2023).

Molecular target: E protein of YFV-17D virus (Yellow fever virus strain 17D, UniProt P03314 286-778)
Experiment: cell-based or functional assay

Sequence of E protein of YFV-17D virus (P03314 286-778 limits assumed): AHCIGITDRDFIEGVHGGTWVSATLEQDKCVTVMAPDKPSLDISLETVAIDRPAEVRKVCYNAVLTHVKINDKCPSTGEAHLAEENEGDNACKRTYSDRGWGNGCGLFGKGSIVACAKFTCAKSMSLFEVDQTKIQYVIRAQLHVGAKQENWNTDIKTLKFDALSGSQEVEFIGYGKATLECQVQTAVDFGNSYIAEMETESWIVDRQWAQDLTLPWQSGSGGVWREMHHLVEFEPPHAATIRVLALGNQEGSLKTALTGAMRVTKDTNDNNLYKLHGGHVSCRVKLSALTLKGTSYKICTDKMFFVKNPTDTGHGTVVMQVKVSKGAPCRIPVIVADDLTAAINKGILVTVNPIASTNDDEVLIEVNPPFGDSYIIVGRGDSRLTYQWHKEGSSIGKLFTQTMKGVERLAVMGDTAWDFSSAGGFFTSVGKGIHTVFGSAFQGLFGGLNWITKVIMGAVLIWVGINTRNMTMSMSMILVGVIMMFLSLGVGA

B1: human monoclonal antibody YFV-136 (antibody, V domains shown)
VH: QVQLQESGPGLVKPSGTLSLTCAVSGGSISSSNWWSWVRQPPGKGLEWIGDIYHSGSTSYNPSLKSRVTISVDRSKNQFSLKLSSVTAADTAVYYCARAPLVNWYYFDYWGQGTLVTVSS
VL: QSVLTQPPSVSAAPGQKVTISCSGSSSNIGNNYVSWYQQLPGTAPKLLIYDNNKGPSGIPDRFSGSKSGTSATLGITGLQTGDEADYYCGTWDTSLSAGRVFGGGTKLTVL
IC50, focus reduction neutralization test (FRNT) of YFV-17D in Vero cells: < 10 ng/mL
